Test results from patent US20070161040A1.

Molecular target: rabbit IgG

Substance “TEM-PA hybrid protein where one repeated domain of the protein A was internalised (from UniProt P62593 24-195; P38507 212-269; P62593 196-286)” has an amount of immobilised rabbit IgG that can be detected of 10 to 100 ng.
